Patent publication US20200224203A1

Tests used:
[1] = target: modified htt protein after partial exon 12 skipping (human) (UniProt P42858); assay: cell-based or functional assay
[2] = target: huntingtin (htt) protein, full length, from human fibroblasts, P42858
Sequence of huntingtin (htt) protein, full length, from human fibroblasts, P42858 (P42858 whole entry): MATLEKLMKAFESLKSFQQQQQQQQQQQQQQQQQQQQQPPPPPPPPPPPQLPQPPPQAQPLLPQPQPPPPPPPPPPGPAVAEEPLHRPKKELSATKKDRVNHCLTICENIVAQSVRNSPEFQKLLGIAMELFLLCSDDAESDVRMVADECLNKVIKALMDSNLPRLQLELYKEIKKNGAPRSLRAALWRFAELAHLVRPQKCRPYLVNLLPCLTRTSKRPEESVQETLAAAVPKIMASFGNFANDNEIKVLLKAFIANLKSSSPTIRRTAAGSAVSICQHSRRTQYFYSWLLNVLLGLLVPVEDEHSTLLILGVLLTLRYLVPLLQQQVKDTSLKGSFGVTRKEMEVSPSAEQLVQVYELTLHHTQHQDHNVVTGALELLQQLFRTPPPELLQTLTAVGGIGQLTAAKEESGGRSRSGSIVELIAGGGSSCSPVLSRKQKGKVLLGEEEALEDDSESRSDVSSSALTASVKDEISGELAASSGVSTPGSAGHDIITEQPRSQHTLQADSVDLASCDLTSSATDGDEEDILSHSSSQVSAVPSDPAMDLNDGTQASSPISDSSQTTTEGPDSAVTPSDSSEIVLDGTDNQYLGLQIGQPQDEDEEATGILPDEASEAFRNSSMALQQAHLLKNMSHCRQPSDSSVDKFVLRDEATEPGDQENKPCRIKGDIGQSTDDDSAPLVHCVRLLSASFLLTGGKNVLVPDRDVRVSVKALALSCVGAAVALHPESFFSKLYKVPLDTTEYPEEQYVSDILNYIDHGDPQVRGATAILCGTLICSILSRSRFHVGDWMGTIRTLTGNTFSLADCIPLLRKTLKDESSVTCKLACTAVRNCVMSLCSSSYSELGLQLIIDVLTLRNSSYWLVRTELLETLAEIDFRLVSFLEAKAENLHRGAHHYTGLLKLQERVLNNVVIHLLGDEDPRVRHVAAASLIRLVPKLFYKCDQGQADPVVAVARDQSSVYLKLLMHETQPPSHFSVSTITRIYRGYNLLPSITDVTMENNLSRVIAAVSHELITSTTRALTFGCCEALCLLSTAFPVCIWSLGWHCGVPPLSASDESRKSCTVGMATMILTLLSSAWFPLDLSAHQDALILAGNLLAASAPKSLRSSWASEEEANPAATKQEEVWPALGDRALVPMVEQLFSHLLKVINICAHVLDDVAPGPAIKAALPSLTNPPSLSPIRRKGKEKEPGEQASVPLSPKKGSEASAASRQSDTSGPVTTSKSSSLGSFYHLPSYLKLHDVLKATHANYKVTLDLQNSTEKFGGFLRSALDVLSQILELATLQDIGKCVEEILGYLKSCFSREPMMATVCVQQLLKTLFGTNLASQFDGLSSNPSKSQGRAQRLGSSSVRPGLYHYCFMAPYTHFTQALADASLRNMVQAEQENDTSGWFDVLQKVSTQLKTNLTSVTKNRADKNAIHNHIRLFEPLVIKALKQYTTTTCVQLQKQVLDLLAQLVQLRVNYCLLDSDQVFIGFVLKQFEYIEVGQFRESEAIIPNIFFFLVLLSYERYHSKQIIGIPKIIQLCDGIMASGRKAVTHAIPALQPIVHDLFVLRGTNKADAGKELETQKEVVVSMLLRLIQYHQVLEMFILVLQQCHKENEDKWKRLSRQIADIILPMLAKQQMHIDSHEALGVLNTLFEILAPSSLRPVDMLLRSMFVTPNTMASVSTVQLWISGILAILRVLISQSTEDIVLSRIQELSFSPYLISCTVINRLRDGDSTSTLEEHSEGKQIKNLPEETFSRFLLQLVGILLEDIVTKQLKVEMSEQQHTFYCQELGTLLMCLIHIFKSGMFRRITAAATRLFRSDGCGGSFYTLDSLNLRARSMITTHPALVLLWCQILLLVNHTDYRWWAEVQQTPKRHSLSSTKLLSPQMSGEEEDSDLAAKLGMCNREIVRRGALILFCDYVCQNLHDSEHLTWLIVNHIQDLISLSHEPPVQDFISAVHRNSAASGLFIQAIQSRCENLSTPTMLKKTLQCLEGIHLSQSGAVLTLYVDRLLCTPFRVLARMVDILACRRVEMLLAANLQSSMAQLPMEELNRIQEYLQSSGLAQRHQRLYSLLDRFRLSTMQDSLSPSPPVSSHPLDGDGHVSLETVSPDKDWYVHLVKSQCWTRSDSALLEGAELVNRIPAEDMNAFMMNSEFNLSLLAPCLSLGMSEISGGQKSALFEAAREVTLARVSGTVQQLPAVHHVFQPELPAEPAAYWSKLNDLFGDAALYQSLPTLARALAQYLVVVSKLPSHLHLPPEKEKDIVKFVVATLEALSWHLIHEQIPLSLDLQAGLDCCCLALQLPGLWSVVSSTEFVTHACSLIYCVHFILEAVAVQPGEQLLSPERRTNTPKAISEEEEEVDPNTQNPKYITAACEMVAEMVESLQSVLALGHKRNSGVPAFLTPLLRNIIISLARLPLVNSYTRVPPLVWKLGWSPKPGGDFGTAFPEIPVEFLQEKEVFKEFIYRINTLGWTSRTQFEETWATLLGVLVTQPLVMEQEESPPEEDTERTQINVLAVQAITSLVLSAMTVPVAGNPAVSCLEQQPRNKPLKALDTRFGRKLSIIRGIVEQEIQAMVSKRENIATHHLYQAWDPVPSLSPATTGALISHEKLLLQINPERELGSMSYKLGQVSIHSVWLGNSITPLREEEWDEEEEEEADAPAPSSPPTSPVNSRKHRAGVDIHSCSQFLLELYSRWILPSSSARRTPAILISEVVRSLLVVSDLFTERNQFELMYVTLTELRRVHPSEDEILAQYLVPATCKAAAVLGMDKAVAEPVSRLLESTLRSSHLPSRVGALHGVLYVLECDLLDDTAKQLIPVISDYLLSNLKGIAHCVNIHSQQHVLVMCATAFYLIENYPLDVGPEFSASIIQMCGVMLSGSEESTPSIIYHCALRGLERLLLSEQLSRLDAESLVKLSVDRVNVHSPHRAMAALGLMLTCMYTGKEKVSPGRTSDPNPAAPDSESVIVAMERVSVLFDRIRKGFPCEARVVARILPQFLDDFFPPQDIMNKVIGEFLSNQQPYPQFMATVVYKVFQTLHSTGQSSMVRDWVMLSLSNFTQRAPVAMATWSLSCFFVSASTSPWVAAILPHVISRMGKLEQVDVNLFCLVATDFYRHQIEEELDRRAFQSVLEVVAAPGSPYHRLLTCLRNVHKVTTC

B1: recombinant active caspase-6 (protein)
chain: AFYKREMFDPAEKYKMDHRRRGIALIFNHERFFWHLTLPERRGTCADRDNLTRRFSDLGFEVKCFNDLKAEELLLKIHEVSTVSHADADCFVCVFLSHGEGNHIYAYDAKIEIQTLTGLFKGDKCHSLVGKPKIFIIQACRGNQHDVPVIPLDVVDNQTEKLDTNITEVDAASVYTLPAGADFLMCYSVAEGYYSHRETVNGSWYIQDLCEMLGKYGSSLEFTELLTLVNRKVSQRRVDFCKDPSAIGKKQVPCFASMLTKKLHFFPKSN
For B1, the reduction of 98 kDa N-terminal htt fragments in an in vitro caspase-6 cleavage assay (samples from cells treated with hHTTEx12 7) [1] was 31.9% and the “N-terminal htt fragments detected by Western blot (4C8 antibody) in an in vitro caspase-6 cleavage assay” value [2] was “After samples were incubated with recombinant active caspase-6, N-terminal htt fragments of 98 kDa were detected”.
